Values joined by “and” are separate entries in the source; they are usually repeats but may differ in a detail not shown here. Equal entries are not always repeated.

As a reminder, the Kd is a measure of binding affinity in units of concentration. Lower therefore signals higher affinity. The koff is the first-order rate constant of dissociation. Higher therefore signals fast dissociation. By kon is commonly meant a measure of how fast the partners come together. High values mean fast association, low ones slow association.

Experiment [1] deals with PARP1 (residues 1 to 1014), P09874. Briefly: SPR; biotinylated DNA SSB captured on a streptavidin chip, PARP1 (40 nM) flowed on to form a PARP1/DNA complex, then HPF1 injected at 62.5-2000 nM with 5 µM EB47 in the buffer; 25 mM HEPES pH 7.4, 250 mM NaCl, 0.1 mM TCEP, 1 mM EDTA, 0.05% Tween20; 1:1 model, steady-state plateaus and kinetic fit. Particulars: remark: other sources report otherwise. For orientation: Surface plasmon resonance follows binding to a sensor surface in real time, without labels.

Experiment [2] has the same target. The description is as above. Particulars: remark: other sources report otherwise. This is another data set of the same source.

Chain of PARP1 (residues 1 to 1014), P09874 (P09874 whole entry, the tested form may be a part): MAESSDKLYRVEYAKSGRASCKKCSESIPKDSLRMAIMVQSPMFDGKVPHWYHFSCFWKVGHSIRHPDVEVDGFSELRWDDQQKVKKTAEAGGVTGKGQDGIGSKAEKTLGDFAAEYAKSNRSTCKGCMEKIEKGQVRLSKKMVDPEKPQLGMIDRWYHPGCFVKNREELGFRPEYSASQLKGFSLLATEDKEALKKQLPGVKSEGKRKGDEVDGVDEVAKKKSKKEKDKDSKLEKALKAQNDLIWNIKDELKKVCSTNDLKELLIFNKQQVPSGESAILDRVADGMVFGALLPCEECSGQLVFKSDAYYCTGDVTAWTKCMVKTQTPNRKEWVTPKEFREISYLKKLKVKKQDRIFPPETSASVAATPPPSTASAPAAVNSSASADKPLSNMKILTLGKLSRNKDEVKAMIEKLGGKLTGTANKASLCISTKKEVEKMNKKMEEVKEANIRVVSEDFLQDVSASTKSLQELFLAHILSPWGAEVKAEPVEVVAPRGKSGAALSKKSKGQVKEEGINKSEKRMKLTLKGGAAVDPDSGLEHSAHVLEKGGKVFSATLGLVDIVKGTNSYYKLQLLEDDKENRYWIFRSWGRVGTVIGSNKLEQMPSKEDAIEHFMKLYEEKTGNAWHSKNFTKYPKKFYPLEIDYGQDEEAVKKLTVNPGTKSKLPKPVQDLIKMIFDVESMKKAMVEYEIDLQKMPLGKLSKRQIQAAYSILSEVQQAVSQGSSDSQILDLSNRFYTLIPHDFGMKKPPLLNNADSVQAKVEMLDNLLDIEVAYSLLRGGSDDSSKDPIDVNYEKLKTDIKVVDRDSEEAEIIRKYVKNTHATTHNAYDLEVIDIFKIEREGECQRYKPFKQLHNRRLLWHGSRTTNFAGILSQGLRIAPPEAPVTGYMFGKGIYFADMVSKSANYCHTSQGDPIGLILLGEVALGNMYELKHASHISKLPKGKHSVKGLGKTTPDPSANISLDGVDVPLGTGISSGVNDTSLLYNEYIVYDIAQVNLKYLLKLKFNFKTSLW

B1: Histone PARylation Factor 1 (HPF1), Q9NWY4 1-346 (natural protein)
chain: MVGGGGKRRPGGEGPQCEKTTDVKKSKFCEADVSSDLRKEVENHYKLSLPEDFYHFWKFCEELDPEKPSDSLSASLGLQLVGPYDILAGKHKTKKKSTGLNFNLHWRFYYDPPEFQTIIIGDNKTQYHMGYFRDSPDEFPVYVGINEAKKNCIIVPNGDNVFAAVKLFLTKKLREITDKKKINLLKNIDEKLTEAARELGYSLEQRTVKMKQRDKKVVTKTFHGAGLVVPVDKNDVGYRELPETDADLKRICKTIVEAASDEERLKAFAPIQEMMTFVQFANDECDYGMGLELGMDLFCYGSHYFHKVAGQLLPLAYNLLKRNLFAEIIEEHLANRSQENIDQLAA
As to B1, in experiment [1], the Kd is 480 nM and 617 nM; the koff was determined as 0.071 s⁻¹; the kon worked out at 112000 M⁻¹ s⁻¹. In experiment [2], the Kd is 540 nM and 550 nM; the koff stood at 0.06 s⁻¹; the kon was determined as 100000 M⁻¹ s⁻¹.

For the origin of these results see article PMC8602370.
